# Assay results taken from article PMC5656675, “Structure based biophysical characterization of the PROPPIN Atg18 shows Atg18 oligomerization upon membrane binding” (Scientific Reports, 2017).
# Columns and labels:
# [1] = target: the molecule itself; test: native MS; purified Atg18 exchanged into 200 mM ammonium acetate; Q-ToF Ultima modified for high mass complexes
# [2] = target: the molecule itself; test: FRET or BRET; stopped-flow, 0.5 µM acceptor-labelled Atg18 C113 bound to LUVs with PtdIns(3,5)P2 (1 mM total lipid) mixed with 0.5 µM donor-labelled Atg18 C113 free in solution; 25 °C, HP150 buffer with 0.1 mM TCEP; dye pairs Alexa Fluor 488/546 and Oregon Green/Texas Red
Protein,stoichiometry N [1],binding result [2]
"Pichia angusta Atg18 (wild type) (natural protein, Pichia angusta (Hansenula polymorpha), Atg18 of Pichia angusta (Hansenula polymorpha), UniProt entry Q5QA94, synthetic gene in pET-28a; also called PaAtg18; source: E. coli, purified (HisTrap, Superdex 200); not shown: His-tag, N-terminal, kept) MASPNPLAFEAATAAHEVAASYVTEHKPRKNDNINFANFNQDFSCVSVGYSNGYKIYNCEPFGQCYSKSDGSIGIVEMLFSSSLLAIVGMGEQHSLSPRRLKIINTKRQTTICELTFPGAILAVKLNRERLVVLLEETIYIYDINNMRLLHTIETPSNPNGLIALSPSSENNYLAYPSPQKLAPNPQTEVTLHSNPQTVRNGDVIIFDAKTLQPTSVIEAHRTSLAAIALSKDGLLLATASDKGTIIRVFSVATGIKLYQFRRGTYPTKIYSLAFSPDNRFVIASSATETVHIFRLGEEEAANTIKSANKKARLTKAQVPNPLETSPDIYPHNQHTSSDEDEELNEDEEDLDGDEDEDLEDDAHVPVSLQRGRSSSSTGSFHSSESMTDKLKEPLVDNSRKSVARMLRRTSQSLGRKAAEKMGTYLPPKFSSILEPNRHFASLKVPASKETKTVVGVGSKIWDDLIPSVYLKDDANSITETSEDLVNKKLVHIMVITSEGFFYKFGLDPERGGDCVLLHQQSLFG",≤ 4,
"Atg18 C113 single cysteine mutant, fluorescently labelled (natural protein, Pichia angusta (Hansenula polymorpha), C113 labelled with Alexa Fluor 488 C5 maleimide (donor) or Alexa Fluor 546 C5 maleimide (acceptor); in the repeat with Oregon Green 488 maleimide or Texas Red C2 maleimide, Atg18 of Pichia angusta (Hansenula polymorpha), UniProt entry Q5QA94, synthetic gene in pET-28a; single cysteine mutant that keeps C113; That the other four are alanine in it is read from this; Two differently labelled copies of the same protein were mixed; also called C113 mutant; source: E. coli, purified (HisTrap, Superdex 200), labelled with maleimide dye) MASPNPLAFEAATAAHEVAASYVTEHKPRKNDNINFANFNQDFSAVSVGYSNGYKIYNAEPFGQAYSKSDGSIGIVEMLFSSSLLAIVGMGEQHSLSPRRLKIINTKRQTTICELTFPGAILAVKLNRERLVVLLEETIYIYDINNMRLLHTIETPSNPNGLIALSPSSENNYLAYPSPQKLAPNPQTEVTLHSNPQTVRNGDVIIFDAKTLQPTSVIEAHRTSLAAIALSKDGLLLATASDKGTIIRVFSVATGIKLYQFRRGTYPTKIYSLAFSPDNRFVIASSATETVHIFRLGEEEAANTIKSANKKARLTKAQVPNPLETSPDIYPHNQHTSSDEDEELNEDEEDLDGDEDEDLEDDAHVPVSLQRGRSSSSTGSFHSSESMTDKLKEPLVDNSRKSVARMLRRTSQSLGRKAAEKMGTYLPPKFSSILEPNRHFASLKVPASKETKTVVGVGSKIWDDLIPSVYLKDDANSITETSEDLVNKKLVHIMVITSEGFFYKFGLDPERGGDAVLLHQQSLFG",,binds
